Results published in the nanobody polyreactivity screen of Harvey et al. (2022).

test: yeast display, Sf9 membrane polyspecificity reagent, FACS + sequencing; frameworks hold sequencing errors
In short: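 A nanobody's polyreactivity label depends on the gate it was sorted from. Yeast display cells were stained with 10% biotinylated, detergent-solubilized Sf9 membrane reagent for 1 hour at 4 °C, enriched on streptavidin microbeads and sorted by FACS. The low and high (top ~1%) gates were set on anti-HA fluorescence for expression and streptavidin fluorescence for reagent binding.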

Row | Sequence | polyreactivity (PSR sort gate)
1 | QVQLVESGGGLVQAGGSLRLSCAAYGSTFGYNAMGWYRQAPGKESELVAAISSTSGSTYYADSVKGRFTISRDNAKNTVYLQMNSLKPEDTAVYYCAADDGDTNAYYFWKPYYYWGQGTQVTVSS | low polyreactivity
2 | QVQLVESGGGLVQAGGSLRLSCAAYGSTFNGNAMGWYRQAPGKERELVARISFDGTSTYYADSVKGRFTISRDNAKNTVYLQMNSLKPEDTAVYYCNVMFPRDHGFPGYGYWGQGTQVTVSS | low polyreactivity
3 | QVQLVESGGGLVQAGGSLRLSCAAYGSTFRRYGMGWYRQAPGKERELVAAISKGGTRTYYADSVKGRFTISRDNVKNTVYLQMNSLKPEDTAVYYCAAAGASSSTPQKEDYWGQGTQVTVSS | high polyreactivity
4 | QVQLVESGGGLVQAGGSLRLSCAAYGSTFSRYAMGWYRQAPGKERELVAAISWGGNTYYADSVKGRFTISRDNAKNTVYLQMNSLKPEDTAVYYCASVGGRFFAPYIWSVDSYDYWGQGTQVTVSS | high polyreactivity
5 | QVQLVESGGGLVQAGGSLRLSCAAYGSTFSWYTMGWYRQAPGKERELVAAISWSGGRTYYADSVKGRFTISRDNAKNTVYLQMNSLKPEDTAVYYCAAYDYRYSLGDYQFYYWGQGTQVTVSS | low polyreactivity
6 | QVQLVESGGGLVQAGGSLRLSCAAYGSTITYYPMGWYRQAPGKERELVAAISGSGRTHYADSVKGRFTISRDNAKNTVYLQMISLNPEDTAVYYCNARQYTYNYAFTRCKYDYWGQGTQVTVSS | high polyreactivity
7 | QVQLVESGGGLVQAGGSLRLSCAAYGYIIDRYAMGWYRPAPGKERELVAAISSDGSTYYADSVKGRFTISRDNAKNTVYLQMNSLKPEDTAVYYGAADGGESAWGGYDYWGQGSQVTVSS | low polyreactivity
8 | QVQLVESGGGLVQAGGSLRLSCAAYGYTFRYNAMGWYRQAPGKERELVATITRGGSTNYADSVKGRFTISRDNAKNTVYLQMNSLKPEDTAVYYCNKEAAPRGFVPSYYGRDYWGQGTQVTVSS | low polyreactivity
9 | QVQLVESGGGLVQAGGSLRLSCADSARTFNWNAMGWYRQAHGKERELVATISRRGGSTYYADSVKGRFTISRDNAKNTVYLQMNSLKPEDTAVYDCNTAGRYGYDYWGQGTQVTVSS | high polyreactivity
10 | QVQLVESGGGLVQAGGSLRLSCADSGFIFGYYAMGWYRQAPGKERELVAAINKNGGSTYYADSVKGRFTISRDNAKNTVYLQMNSLKPEDTAVYYCAARARGYAWTFDYWGQGTQVTVSS | high polyreactivity
11 | QVQLVESGGGLVQAGGSLRLSCADSGFIIGRYTMGWYRQAPGKERELVAAISFRGGSTYYADSVKGRFTISRDNAKNTVYLQMNCLKPEDTAVYYCAAYSSGPYGFDYWGQGTQVTVSS | high polyreactivity
12 | QVQLVESGGGLVQAGGSLRLSCADSGFTCYYYTMGWNRPAPWKGRELVAAISWSGGSTYYADSVKGRFTISRDNAKNTVYLQMNSLKPEDPAVYYCNKAYPGRTYDYWGQGSQVTVSS | high polyreactivity
13 | QVQLVESGGGLVQAGGSLRLSCADSGFTFDWYAMGWYRQAPGKERELVAAISGRGGSTYYADSVKGRFTISRDNAKNTVYLQMNSLKPEDTAVYDCNAVYGAYRYEYWGQGTQVTVSS | high polyreactivity
14 | QVQLVESGGGLVQAGGSLRLSCADSGFTFYRYARGWYRQAPGKERELVADITSGGSTNYADSVKGRFTISRDNAKNTVYLQMNSLKPEDTAVYYCNADRWYGSVYRYGYWGQGTQVTVSS | high polyreactivity
15 | QVQLVESGGGLVQAGGSLRLSCADSGFTLNAMGWYRHAPGKERELVAAITTGGRTYYADSVKGRFTISRDNAKNTVYLQMNSLKPEDTAVYYCGAHTYYYPVGFNYWGQGTQVTVSS | low polyreactivity
16 | QVQLVESGGGLVQAGGSLRLSCADSGHIFFYYTMGWYRQAPGKEREMVAGITIGGSTNYADSVKVRFTISRDNAKNTVYLQMNSLKPEDTAVYYCNVVKYVYIYSYSEYYYWGQGTQVTVSS | low polyreactivity
17 | QVQLVESGGGLVQAGGSLRLSCADSGITFVTYAMGWYRQAPGKERELVAAISRSGGRTYYADYVKGRFTISRENAKNTVYLQMNSLKPEDTAVYYCAAERKNKYDYWVQGTQVTVSS | high polyreactivity
18 | QVQLVESGGGLVQAGGSLRLSCADSGITLYYNAMGWYRQAPGKERELVAAISWSGDSTYYADSVKGRFTISRDNAKNTVYLQMNSLKPEDTAVYYCAADRYTYYHYAWYEYWGQGTQVTVSS | low polyreactivity
19 | QVQLVESGGGLVQAGGSLRLSCADSGLIFEDYAMGWYRQAPGKERELVAAIDWGGGSTYYADSVKGRFTISRDNAKNTVYLQMNSLKPEDTAVYYCAADSYFSYRYNYWGQGTQVTVSS | low polyreactivity
20 | QVQLVESGGGLVQAGGSLRLSCADSGLIFQYYVMVWYRQAQGKERELVAAISARGGGTYYADSVKGRFTISRDNAKNTVYLPMNSLKPEVTAVYYCAAHQVYAGPGYDYWGQGTQVTVSS | high polyreactivity
21 | QVQLVESGGGLVQAGGSLRLSCADSGLIFRHYAMGWYRQAPGKERELVASISYRGGSTYYADSVKGRFTISRDNPKNTVYLQMNSLKPEDTAVDYCAADTYYPTYWSVTYGYDYWGQGTQVTVSS | low polyreactivity

Row | Sequence | polyreactivity (PSR sort gate)
22 | QVQLVESGGGLVQAGGSLRLSCADSGLIFTQYAMGWYIQAPGKEREFVAAITWNGGRTYYADSVKGRFTISRDNAKNTVYLQMNSLKPEDTAVYYCATRNTRFHLDYWGQGTQVTVSS | high polyreactivity
23 | QVQLVESGGGLVQAGGSLRLSCADSGLTFRRYAMGWYRQAPGKERELVAAITRGGSTNYADSVKGRFTISRVNAKNTVYLQMNSLKPEDTAVYFCAAVYSTRSTSYWMDYWGQGTQVTVSS | high polyreactivity
24 | QVQLVESGGGLVQAGGSLRLSCADSGRIFASYAMGWYRQAPRKERELVAAISWRGGTTYYADSVKGRFTSSRDNAKNTVYLQMNSLKPEDTAVYYCATTSSLGSWGYDYWGQGTQVTVSS | high polyreactivity
25 | QVQLVESGGGLVQAGGSLRLSCADSGRIFRYYAMGWYRQAPGKERELVAAITWSGGTTIYADSVKGRFSISRDNAKNTVYLQMNSLKPEDTAVYYCNAARSRGANLVPPYRLYYWGQGTQVTVSS | low polyreactivity
26 | QVQLVESGGGLVQAGGSLRLSCADSGRIYGIYAMGWYRQAPGKERELVAAITNIGGRTYYADSVKGRFTISRDNAKNTVYLQMNSLKPEDTAVYYCAKRWRRRFVDVWSLYDYWGQGTQVTVSS | low polyreactivity
27 | QVQLVESGGGLVQAGGSLRLSCADSGRTFGPNAMGWYRQAPGKERELVAAITGGGSTYYADSVKGRFTISRDNAKNTVYLQMNSLKPEDTAVYYCAAVWTYWYYGDDYWGQGTQVTVSS | low polyreactivity
28 | QVQLVESGGGLVQAGGSLRLSCADSGRTFVGNAMGWYRQAPGKGWEFVAAISRSGGSTNYADSVKGRFTISRDNAKNTVYLQMKSLKPEDTAVYYCAARDRFGGIRRYIYWGQGTQVTVSS | high polyreactivity
29 | QVQLVESGGGLVQAGGSLRLSCADSGRTFYHYAMGWYRQAPGKERELVATITSSGGNTYYADSVKGRFTISRDNAKNTVYLQINSLKPEDTAVYYCAADWFVYQYSFGSSEYYYWGQGTQVTVSS | low polyreactivity
30 | QVQLVESGGGLVQAGGSLRLSCADSGRTQWSYAIGWYRQAPGKERELVATISYSGGSTYYADSVKGRFTISRDNAKNTVYLQMNSLKPEATAVYYCNAVARWYVLQVYEYDYWGEGTQVTVSS | low polyreactivity
31 | QVQLVESGGGLVQAGGSLRLSCADSGRTSYYYVMGWYRQAPGKERELVAAIRSRGGSTYYADSVKGRFTISRDNAKNTVYLQMNSLKPEDTAVYYCAARYGFWSYDFGYWGLGTQVTVSS | high polyreactivity
32 | QVQLVESGGGLVQAGGSLRLSCADSGSIFIANAMGWYRPAPGKERELVAAIDSGGSTNYADSVKGRFTSSRDNAKNTVYLQMNSLKPEDTAVYYCAADGTLTAPGGDYWGQGTQVTVSS | high polyreactivity
33 | QVQLVESGGGLVQAGGSLRLSCADSGSIFKYYAMGWYRQAPGKERELDASISWSGGTTYYADSVKGRFTISRDNAKNTVYLQMNSLKPEDTAVYYCNARWWVRYSNKYDYWGQGTQVTVSS | high polyreactivity
34 | QVQLVESGGGLVQAGGSLRLSCADSGSIFRRNAMGWYRQAPGKERELVAGIRGSGGSTYYADSVKGRFTISRDNAKNTVYLQMNSLKPEDTAVYYCAARRSYYHGSYDYWGQGTQVTVSS | high polyreactivity
35 | QVQLVESGGGLVQAGGSLRLSCADSGSIFTYTMGWYRQAPGKERELVAVISRSGGRTYYADSVKGRFTISRDNAKNTVYLQMNSLKPEDTAVYYCATDGHNGYYGRYDYWGQGTQVTVSS | high polyreactivity
36 | QVQLVESGGGLVQAGGSLRLSCADSGSIGYYAMGWYRQAPGKERELVAVISRSGTGTYYADSVKGRFTISRDNANNTVYLQMNSLKPEDTAVYYCNAETYTYRYENDYWGQGTQVTVSS | high polyreactivity
37 | QVQLVESGGGLVQAGGSLRLSCADSGSIIYYAMGWNRQAPGKEREFVAAITKSGGSTYYADSVKGRFTISRDNAKNTVYLQMNSLKPEDTAVYYCAARGTWAGFYYWGQGTQVTVSS | high polyreactivity
38 | QVQLVESGGGLVQAGGSLRLSCADSGSIVLVNAMGWSRQAPGKEREMVAAITYGGDSTYYADSVKGRFTISRDNAKNSVYFQINSLKREDTAVYYFAADAWVGWHDEYDYWGQGTQVTVSS | low polyreactivity
39 | QVQLVESGGGLVQAGGSLRLSCADSGSIYHNYDMGWYRQAPGKEKEFVADISRGGDTIYADSVKGRFSISRDNAKNTVYLQMNSLKPEDTAVYYCNATYWILDSPWWRETFDYWGQGTQVTVSS | low polyreactivity
40 | QVQLVESGGGLVQAGGSLRLSCADSGSTFGYYAMGWYRQAPGKERELVAGISSGGTTKYADSVKGRFTISRDNAKNTVYLQMNSLKPVDTAVYYCAARFRRTRVTYYYWGQGTQVTVSS | high polyreactivity
41 | QVQLVESGGGLVQAGGSLRLSCADSGSTFKGYTMGWYRQAPGKERELVAAIRSRSGNTYYADSVKGRFTISRDNAKNHVYLLMNSLKPEETAVYYCAAVQPYVDYDSWGQGTQVTVSS | high polyreactivity
